Literature values as cited in article PMC7615502.

Legend:
IL-2Rβγ (Homo sapiens) = IL-2Rβγ (Homo sapiens) (UniProt P14784)
IL-2Rα (Homo sapiens) = IL-2Rα (Homo sapiens) (UniProt P01589)
Sequence of UniProt P01589 (P01589 22-240): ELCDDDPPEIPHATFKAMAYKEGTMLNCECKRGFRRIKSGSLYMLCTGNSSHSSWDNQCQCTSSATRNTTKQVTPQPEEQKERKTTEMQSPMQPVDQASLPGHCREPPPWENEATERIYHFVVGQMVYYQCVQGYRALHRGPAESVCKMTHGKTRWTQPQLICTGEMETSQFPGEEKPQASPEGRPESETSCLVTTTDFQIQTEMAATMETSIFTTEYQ

Sequence of UniProt P14784 (P14784 27-240, chain 1 of 2): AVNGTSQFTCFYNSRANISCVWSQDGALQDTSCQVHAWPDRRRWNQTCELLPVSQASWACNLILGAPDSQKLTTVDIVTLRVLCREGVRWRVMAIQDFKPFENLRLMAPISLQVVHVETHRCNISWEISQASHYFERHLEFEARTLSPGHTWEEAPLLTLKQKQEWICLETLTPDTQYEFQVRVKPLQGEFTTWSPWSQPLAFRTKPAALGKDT
Sequence of UniProt P14784 (P31785 23-262, chain 2 of 2, further chain): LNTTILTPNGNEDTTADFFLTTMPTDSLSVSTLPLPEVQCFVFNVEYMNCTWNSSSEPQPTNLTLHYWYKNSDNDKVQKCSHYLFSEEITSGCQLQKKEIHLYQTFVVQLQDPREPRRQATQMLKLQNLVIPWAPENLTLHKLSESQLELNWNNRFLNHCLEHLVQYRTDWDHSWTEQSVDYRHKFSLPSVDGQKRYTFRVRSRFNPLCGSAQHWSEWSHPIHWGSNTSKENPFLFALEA

For IL-2 (from UniProt P60568), the Kd (IL-2Rβγ (Homo sapiens)) is listed as 1 nM and the Kd (IL-2Rα (Homo sapiens)) is listed as 10 nM.
